Results taken from US20160251438A1.

Experiments:
[1] = molecular target: GARP / TGF-β1 Y336Q complex (human) (UniProt Q14392); assay: flow cytometry titration on transfected 293T cells; grade of Reduced avidity read by footnote 3
[2] = molecular target: GARP / TGF-β1 Y336Q complex (human) (UniProt Q14392); assay: FACS titration on transfected 293T; EC50 mutant / EC50 WT [cont.) B]
[3] = molecular target: GARP / TGF-β1 Y336Q complex (human) (UniProt Q14392); assay: flow cytometry on transfected 293T cells, 5 ug/ml; grade of Loss of binding read by footnote 2
[4] = molecular target: GARP / TGF-β1 Y336Q complex (human) (UniProt Q14392); assay: FACS titration on transfected 293T; EC50 mutant / EC50 WT

Sequence of GARP / TGF-β1 Y336Q complex (human) (Q14392 20-662, chain 1 of 2): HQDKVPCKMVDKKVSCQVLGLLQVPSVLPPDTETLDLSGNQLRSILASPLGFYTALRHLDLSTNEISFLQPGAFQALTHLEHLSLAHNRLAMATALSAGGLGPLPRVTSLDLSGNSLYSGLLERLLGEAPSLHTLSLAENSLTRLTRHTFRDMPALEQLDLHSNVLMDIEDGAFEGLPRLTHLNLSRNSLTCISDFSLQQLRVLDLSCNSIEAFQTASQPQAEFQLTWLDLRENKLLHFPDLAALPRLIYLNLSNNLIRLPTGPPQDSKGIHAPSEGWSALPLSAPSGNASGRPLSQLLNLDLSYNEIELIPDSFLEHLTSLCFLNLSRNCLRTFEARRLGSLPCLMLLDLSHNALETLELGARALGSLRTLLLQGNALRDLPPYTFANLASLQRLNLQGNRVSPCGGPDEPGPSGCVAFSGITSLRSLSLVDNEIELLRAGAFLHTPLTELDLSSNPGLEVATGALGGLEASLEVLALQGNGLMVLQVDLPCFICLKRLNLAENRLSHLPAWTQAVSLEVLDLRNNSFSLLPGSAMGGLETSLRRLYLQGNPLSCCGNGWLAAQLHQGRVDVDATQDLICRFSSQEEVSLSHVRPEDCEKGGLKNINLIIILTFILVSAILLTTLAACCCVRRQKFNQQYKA
Sequence of GARP / TGF-β1 Y336Q complex (human) (P01137 30-390 Y336Q, chain 2 of 2, further chain): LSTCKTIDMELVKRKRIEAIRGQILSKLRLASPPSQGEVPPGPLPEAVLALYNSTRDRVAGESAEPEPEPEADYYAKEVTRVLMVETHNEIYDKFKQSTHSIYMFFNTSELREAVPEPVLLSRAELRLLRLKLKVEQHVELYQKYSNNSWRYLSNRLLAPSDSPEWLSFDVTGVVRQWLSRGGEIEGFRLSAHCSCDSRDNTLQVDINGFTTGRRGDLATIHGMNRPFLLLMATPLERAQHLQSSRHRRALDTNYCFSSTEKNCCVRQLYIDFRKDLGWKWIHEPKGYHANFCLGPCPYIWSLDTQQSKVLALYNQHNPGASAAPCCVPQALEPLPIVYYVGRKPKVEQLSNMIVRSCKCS

Row | Binder | ratio of EC50 (mutant vs WT) [1] | Ratio of EC50 (mutant / wt) [2] | residual binding on mutant by comparison to WT [3] [%] | Ratio of EC50 (mutant / wt) [4]
1 | LHG-10 (antibody, human IgG1, V domains shown) VH: EVQLVQPGAELRNSGASVKVSCKASGYRFTSYYIDWVRQAPGQGLEWMGRIDPEDGGTKYAQKFQGRVTFTADTSTSTAYVELSSLRSEDTAVYYCARNEWETVVVGDLMYEYEYWGQGTQVTVSS VL: DIQMTQSPTSLSASLGDRVTITCQASQSISSYLAWYQQKPGQAPKLLIYGASRLQTGVPSRFSGSGSGTSFTLTISGLEAEDAGTYYCQQYDSLPVTFGQGTKVELK | < 2 | 1.1 | > 50 | 
2 | MHGARP8 (antibody, V domains shown) VH: QVQLKESGPGLVAPSQSLSITCTVSGFSLTGYGINWVRQPPGKGLEWLGMIWSDGSTDYNSVLTSRLRISKDNSNSQVFLKMNSLQVDDTARYYCARDRNYYDYDGAMDYWGQGTSVTVSS VL: DIQVTQSSSYLSVSLGDRVTITCKASDHIKNWLAWYQQKPGIAPRLLVSGATSLEAGVPSRFSGSGSGKNFTLSITSLQTEDVATYYCQQYWSTPWTFGGGTTLEIR |  |  | > 50 | 0.9
